One assay addresses T1, PACAP-R2 (Homo sapiens, UniProt P32241).
T1 construct: expressed in transfected cells; host or cells: CHO cells
T1 sequence (P32241 31-457): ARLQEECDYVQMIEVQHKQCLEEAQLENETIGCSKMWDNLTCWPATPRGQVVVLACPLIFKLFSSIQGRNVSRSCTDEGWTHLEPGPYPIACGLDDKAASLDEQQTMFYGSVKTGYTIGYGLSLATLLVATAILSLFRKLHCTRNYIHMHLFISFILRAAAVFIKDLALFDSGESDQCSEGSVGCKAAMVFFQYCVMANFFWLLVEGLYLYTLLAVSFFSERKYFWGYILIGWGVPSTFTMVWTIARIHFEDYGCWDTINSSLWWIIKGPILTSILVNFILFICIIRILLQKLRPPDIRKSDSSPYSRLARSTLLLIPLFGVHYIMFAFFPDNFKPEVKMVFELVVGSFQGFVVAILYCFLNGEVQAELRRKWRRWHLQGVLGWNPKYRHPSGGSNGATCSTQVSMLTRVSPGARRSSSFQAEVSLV
The assay is described as follows: Cyclic AMP SPA on CHO cells transfected with PACAP-R2. The format is cell-based. Conditions: cAMP SPA, concentration at which 50% of maximum PACAP27 activity is achieved, NA = no detectable activities, read-out: R2 EC50. On the procedure:
CHO cells expressing the PACAP R3 were plated in 96-well plates (Costar) at 8×10^4 cell/well and grown at 37 C. for 24 hours in α MEM+nucleosides+glutamine (Giobco BRL), 10% FBS, 100 μg/ml Pen/Strep, 0.3 mg/ml glutamine, 1 mM HEPES, 0.5 mg/ml Geneticin (Gibco BRL). The media was removed and the plates were washed with PBS. The cells were incubated with a peptide, in Hepes-PBS-BSA with 0.4 mg/mlSoybean Trypsin Inhibitor, 0.5 mg/ml Bacitracin, 100 uM IBMX, for 15 min at 37 C. Cyclic AMP in the cell extracts was quantitated using the cAMP SPA direct screening assay system (Amersham Pharmacia Biotech Inc, Piscataway, N.J.,). The peptides shown in Table 3 were assayed for cAMP activity.
EC50 is defined as the concentration of the polypeptide at which 50% of maximum PACAP27 activity is achieved. “NA” denotes no detectable activities. “R3 Selectivity” is derived from the ratio of EC50 at R2 versus EC50 at R3.

For the next assay, the target named is T2, PACAP-R3 (human, UniProt P41587 24-438).
T2 sequence (looked up): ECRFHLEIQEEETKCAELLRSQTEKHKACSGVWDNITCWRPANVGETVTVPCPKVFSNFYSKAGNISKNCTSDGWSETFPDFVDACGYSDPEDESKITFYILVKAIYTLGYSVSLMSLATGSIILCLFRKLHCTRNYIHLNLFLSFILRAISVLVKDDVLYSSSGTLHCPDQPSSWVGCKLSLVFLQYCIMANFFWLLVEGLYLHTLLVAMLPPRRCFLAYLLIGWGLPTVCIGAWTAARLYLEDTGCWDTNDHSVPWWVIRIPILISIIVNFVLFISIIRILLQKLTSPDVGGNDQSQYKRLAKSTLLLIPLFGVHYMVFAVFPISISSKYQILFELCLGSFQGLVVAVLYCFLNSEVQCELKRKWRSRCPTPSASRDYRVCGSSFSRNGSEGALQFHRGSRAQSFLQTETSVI
As to the kind of experiment: cell-based or functional assay.

No end group written: not given here.

As to `CC[C@H](C)[C@H](NC(=O)[C@H](CO)NC(=O)[C@H](CC(N)=O)NC(=O)[C@H](CC(C)C)NC(=O)[C@H](Cc1ccc(O)cc1)NC(=O)[C@H](CCCCN)NC(=O)[C@H](CCCCN)NC(=O)[C@H](C)NC(=O)[C@H](C)NC(=O)[C@H](CCSC)NC(=O)[C@H](CCC(N)=O)NC(=O)[C@H](CCCCN)NC(=O)[C@H](CCCNC(=N)N)NC(=O)[C@H](CC(C)C)NC(=O)[C@H](CCCNC(=N)N)NC(=O)[C@@H](NC(=O)[C@H](Cc1ccc(O)cc1)NC(=O)[C@H](CC(N)=O)NC(=O)[C@H](CC(=O)O)NC(=O)[C@@H](NC(=O)[C@H](Cc1ccccc1)NC(=O)[C@@H](NC(=O)[C@H](C)NC(=O)[C@H](CC(=O)O)NC(=O)[C@H](CO)NC(=O)[C@@H](N)Cc1c[nH]cn1)C(C)C)[C@@H](C)O)[C@@H](C)O)C(=O)N[C@@H](CCCCN)C(=O)N[C@@H](CC(N)=O)C(=O)N[C@@H](CCCCN)C(=O)N[C@@H](Cc1ccc(O)cc1)C(=O)O` [Peptide R3P171], the EC50 (in general, the midpoint of the concentration-response curve) on PACAP-R2 is 80 nM.

As to `CC[C@H](C)[C@H](NC(=O)[C@H](CO)NC(=O)[C@H](CC(N)=O)NC(=O)[C@H](CC(C)C)NC(=O)[C@H](Cc1ccc(O)cc1)NC(=O)[C@H](CCCCN)NC(=O)[C@H](CCCCN)NC(=O)[C@H](C)NC(=O)[C@H](C)NC(=O)[C@H](CCSC)NC(=O)[C@H](CCC(N)=O)NC(=O)[C@H](CCCCN)NC(=O)[C@H](CCCNC(=N)N)NC(=O)[C@H](CC(C)C)NC(=O)[C@H](CCCNC(=N)N)NC(=O)[C@@H](NC(=O)[C@H](Cc1ccc(O)cc1)NC(=O)[C@H](CC(N)=O)NC(=O)[C@H](CC(=O)O)NC(=O)[C@@H](NC(=O)[C@H](Cc1ccccc1)NC(=O)[C@@H](NC(=O)[C@H](C)NC(=O)[C@H](CC(=O)O)NC(=O)[C@H](CO)NC(=O)[C@@H](N)Cc1c[nH]cn1)C(C)C)[C@@H](C)O)[C@@H](C)O)C(=O)N[C@@H](CCCCN)C(=O)N[C@@H](CC(N)=O)C(=O)N[C@@H](CCCCN)C(=O)N[C@@H](CC(C)C)C(=O)O` [Peptide R3P162], the EC50 at PACAP-R2 came to 20 nM.

Consider “HSDAVFTDNYTRLRKQLAAKKYLNDIKNGGT [Peptide R3P24]”, for which, at PACAP-R2, the EC50 was found to be 45 nM.

With `CC[C@H](C)[C@H](NC(=O)[C@H](CO)NC(=O)[C@H](CC(N)=O)NC(=O)[C@H](CC(C)C)NC(=O)[C@H](Cc1ccc(O)cc1)NC(=O)[C@H](CCCCN)NC(=O)[C@H](CCCCN)NC(=O)[C@H](C)NC(=O)[C@H](C)NC(=O)[C@H](CCSC)NC(=O)[C@H](CCC(N)=O)NC(=O)[C@H](CCCCN)NC(=O)[C@H](CCCNC(=N)N)NC(=O)[C@H](CC(C)C)NC(=O)[C@H](CCCNC(=N)N)NC(=O)[C@@H](NC(=O)[C@H](Cc1ccc(O)cc1)NC(=O)[C@H](CC(N)=O)NC(=O)[C@H](CC(=O)O)NC(=O)[C@@H](NC(=O)[C@H](Cc1ccccc1)NC(=O)[C@@H](NC(=O)[C@H](C)NC(=O)[C@H](CC(=O)O)NC(=O)[C@H](CO)NC(=O)[C@@H](N)Cc1c[nH]cn1)C(C)C)[C@@H](C)O)[C@@H](C)O)C(=O)N[C@@H](CCCCN)C(=O)N[C@@H](CC(N)=O)C(=O)N[C@@H](CCCCN)C(=O)N[C@@H](CCSC)C(=O)O` [Peptide R3P163], at PACAP-R2, the EC50 turned out to be 40 nM.

Consider `CC[C@H](C)[C@H](NC(=O)[C@H](CO)NC(=O)[C@H](CC(N)=O)NC(=O)[C@H](CC(C)C)NC(=O)[C@H](Cc1ccc(O)cc1)NC(=O)[C@H](CCCCN)NC(=O)[C@H](CCCCN)NC(=O)[C@H](CCSC)NC(=O)[C@H](C)NC(=O)[C@H](CCSC)NC(=O)[C@H](CCC(N)=O)NC(=O)[C@H](CCCCN)NC(=O)[C@H](CCCNC(=N)N)NC(=O)[C@H](CC(C)C)NC(=O)[C@H](CCCNC(=N)N)NC(=O)[C@@H](NC(=O)[C@H](Cc1ccc(O)cc1)NC(=O)[C@H](CC(N)=O)NC(=O)[C@H](CC(=O)O)NC(=O)[C@@H](NC(=O)[C@H](Cc1ccccc1)NC(=O)[C@@H](NC(=O)[C@H](C)NC(=O)[C@H](CC(=O)O)NC(=O)[C@H](CO)NC(=O)[C@@H](N)Cc1c[nH]cn1)C(C)C)[C@@H](C)O)[C@@H](C)O)C(=O)N[C@@H](CCCCN)C(=O)N[C@@H](CC(N)=O)C(=O)N[C@@H](CCCCN)C(=O)N[C@@H](CCCNC(=N)N)C(=O)O` [Peptide R3P106], for which the EC50 on PACAP-R2 was 2 nM.

For the molecule `CC[C@H](C)[C@H](NC(=O)[C@H](CO)NC(=O)[C@H](CC(N)=O)NC(=O)[C@H](CC(C)C)NC(=O)[C@H](Cc1ccc(O)cc1)NC(=O)[C@H](CCCCN)NC(=O)[C@H](CCCCN)NC(=O)[C@H](C)NC(=O)[C@H](C)NC(=O)[C@H](CCSC)NC(=O)[C@H](CCC(N)=O)NC(=O)[C@H](CCCCN)NC(=O)[C@H](CCCNC(=N)N)NC(=O)[C@H](CC(C)C)NC(=O)[C@H](CCCNC(=N)N)NC(=O)[C@@H](NC(=O)[C@H](Cc1ccc(O)cc1)NC(=O)[C@H](CC(N)=O)NC(=O)[C@H](CC(=O)O)NC(=O)[C@@H](NC(=O)[C@H](Cc1ccccc1)NC(=O)[C@@H](NC(=O)[C@H](C)NC(=O)[C@H](CC(=O)O)NC(=O)[C@H](CO)NC(=O)[C@@H](N)Cc1c[nH]cn1)C(C)C)[C@@H](C)O)[C@@H](C)O)C(=O)N[C@@H](CCCCN)C(=O)N[C@@H](CC(N)=O)C(=O)N[C@@H](C)C(=O)N[C@@H](CCCNC(=N)N)C(=O)O` [Peptide R3P134], at PACAP-R2, the EC50 is 40 nM.

As to HSDAVFTDNYTRLRKQLAAKKYLNDIKKNQ [R3P35], in the assay with PACAP-R3, the “R3 EC50” value came to 2.6 nM and the “R3 Selectivity” value is over 40.

As to HSDAVFTDNYTRLRKQLAAKKYLNDIKKGG [R3P31], in the assay with PACAP-R3, the “R3 EC50” value was 0.3 nM and the “R3 Selectivity” value is over 300.

Take HSDAVFTDNYTRLRKQLAAKKYLNDIKKQ [R3P34]: in the assay with PACAP-R3, the “R3 EC50” value was found to be 1.4 nM and the “R3 Selectivity” value is over 70.

With HSDAVFTDNYTRLRKQLAAKKYLNSIKKGGT [R3P22], in the assay with PACAP-R3, the “R3 EC50” value was 1.6 nM and the “R3 Selectivity” value was 24.

As to HSDAVFTDNYTRLRKQLAAKKYLNSIKNGGT [R3P30], in the assay with PACAP-R3, the “R3 EC50” value was found to be 0.4 nM and the “R3 Selectivity” value was 50.

Turning to HSDAVFTDNYTRLRKQLAVKKYLNSIKKGGT [R3P25], in the assay with PACAP-R3, the “R3 EC50” value worked out at 0.7 nM and the “R3 Selectivity” value was 20.

On to HSDAVFTDNYTRLRKQLAVKKYLNDIKNGGT [R3P29], for which, in the assay with PACAP-R3, the “R3 EC50” value is 0.5 nM and the “R3 Selectivity” value is over 200.

HSDAVFTDNYTRLRKQMAAKKYLNSIKKGGT [R3P26]: in the assay with PACAP-R3, the “R3 EC50” value amounted to 0.55 nM and the “R3 Selectivity” value is over 180.

As to HSDAVFTDNYTRLRKQLAAKKYLNDIKKKRY [R3P36], in the assay with PACAP-R3, the “R3 EC50” value was determined as 0.4 nM and the “R3 Selectivity” value was over 200.

For the molecule HSDAVFTDNYTRLRKQMAVKKYLNSILK [R3P43], in the assay with PACAP-R3, the “R3 EC50” value is 0.08 nM and the “R3 Selectivity” value was determined as 10.

Turning to HSDAVFTDNYTRLRKQMAVKKYLNSIKN [R3P42], in the assay with PACAP-R3, the “R3 EC50” value was found to be 0.03 nM and the “R3 Selectivity” value is 10.

In the case of HSDAVFTDNYTRLRKQLAAKKYLNDIKKG [R3P32], in the assay with PACAP-R3, the “R3 EC50” value is 0.4 nM and the “R3 Selectivity” value is 200.

Turning to HSDAVFTDNYTRLRKQMAVKKYLNSIKK [R3P41], in the assay with PACAP-R3, the “R3 EC50” value was found to be 0.08 nM and the “R3 Selectivity” value was found to be 100.

Turning to HSDAVFTDNYTRLRKQLAAKKYLNDIKK [R3P33], in the assay with PACAP-R3, the “R3 EC50” value worked out at 0.5 nM and the “R3 Selectivity” value is over 200.
